Test results from paper PMC5973781.

Biological target: mouse ANKRD16^3xArg (recombinant) (mouse) (UniProt A2AS55)
Assay: SwitchSENSE

fold change in affinity against wild type ANKRD16: 2 fold
Substance: mouse AlaRS^A734E (recombinant, SwitchSENSE and biochemical assays) (from UniProt Q8BGQ7 1-968) (enzyme)
